Laboratory results as given in the supplement of paper PMC7125110.
± gives the standard error. For part of these data: This sample holds only a part of the variants without activity.

B1: glmS ribozyme (parent)
chain: AUAAAAGCGCCAGAACUACAGAAAUGUAGUUGACGAGGAGGAGGUUUAUCGAAUUUUCGGCGGAUGCCUCCAAA

What was measured:
Details in all cases: with glucosamine-6-phosphate
glucosamine-6-phosphate [1] = variants of: B1; assay: kcat; higher = faster cleavage; RNA array
How it was run: (§1)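 The measurements used barcoded ribozyme variants on sequenced MiSeq chips, transcribed in situ by E. coli RNA polymerase and tracked at 37 °C with a hybridised Cy3 probe. Glucosamine-6-phosphate, 40 μM to 10 mM in HEPES/KCl/Mg(OAc)2 buffer, was flowed in while tiles were imaged over ~14 h. Baseline-normalised signals, also normalised to non-cleaving reference variants, gave per-tile medians that were fit to one- or two-exponential decays for kobs. kcat and KM resulted from weighted Michaelis–Menten fits across concentrations.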

glucosamine-6-phosphate [2] = variants of: B1; assay: self-cleavage kobs at 160 uM GlcN6P; higher = faster cleavage; RNA array
How it was run: as §1

glucosamine-6-phosphate [3] = variants of: B1; assay: self-cleavage kobs at 640 uM GlcN6P; higher = faster cleavage; RNA array
How it was run: as §1

glucosamine-6-phosphate [4] = variants of: B1; assay: self-cleavage kobs at 2500 uM GlcN6P; higher = faster cleavage; RNA array
How it was run: as §1

glucosamine-6-phosphate [5] = variants of: B1; assay: self-cleavage kobs at 10000 uM GlcN6P; higher = faster cleavage; RNA array
How it was run: as §1

glucosamine-6-phosphate [6] = variants of: B1; assay: KM; higher = weaker cofactor use; RNA array
How it was run: as §1

glucosamine-6-phosphate [7] = variants of: B1; assay: self-cleavage kobs at 40 uM GlcN6P; higher = faster cleavage; RNA array
How it was run: as §1

Variant | kcat (glucosamine-6-phosphate [1]) [s⁻¹] | self-cleavage kobs at 160 uM GlcN6P (glucosamine-6-phosphate [2]) [s⁻¹] | self-cleavage kobs at 640 uM GlcN6P (glucosamine-6-phosphate [3]) [s⁻¹] | self-cleavage kobs at 2500 uM GlcN6P (glucosamine-6-phosphate [4]) [s⁻¹] | self-cleavage kobs at 10000 uM GlcN6P (glucosamine-6-phosphate [5]) [s⁻¹] | KM (glucosamine-6-phosphate [6]) [µM] | self-cleavage kobs at 40 uM GlcN6P (glucosamine-6-phosphate [7]) [s⁻¹]
U31G G41U | 0.000641 ± 0.00019 | 6.71e-05 ± 1.8e-05 | 0.000154 ± 6.3e-05 | 0.000806 ± 0.00017 | 0.000505 ± 0.0001 | – | –
A52U U57A | 0.00351 ± 0.00067 | 9.27e-05 ± 1.9e-05 | 0.000344 ± 6.8e-05 | 0.00123 ± 0.00025 | 0.00213 ± 0.00033 | 5900 ± 1500 | –
A48G C67A | 7.17e-05 ± 2.1e-06 | < 1e-05 | – | – | 3.47e-05 ± 1.2e-05 | – | –
A39C U54A | 0.00479 ± 0.0015 | 0.000483 ± 0.00013 | 0.00157 ± 0.00028 | 0.00219 ± 0.00068 | 0.00615 ± 0.0015 | 1410 ± 630 | 0.000143 ± 4.1e-05
G13U C58U C67G | 2.59e-05 ± 5.8e-06 | – | – | – | – | – | –
C11A C61A | < 1e-05 | – | – | – | – | – | –
G13U C50G A52C | 1.8e-05 ± 3e-06 | – | – | – | – | – | –
G40A C70U | 0.000518 ± 0.0001 | – | – | 0.000417 ± 0.00011 | 0.000752 ± 0.00019 | 165 ± 58 | 0.000102 ± 1.8e-05
G51A C67G | 2e-05 ± 6.5e-06 | – | – | – | – | – | –
A12C C70G | 0.000232 ± 6.8e-05 | 7.74e-05 ± 1.7e-05 | 0.000119 ± 1.1e-05 | 0.000154 ± 1.8e-05 | 0.000352 ± 4.1e-05 | – | –
G26U U65G | 0.00661 ± 0.0013 | 0.00028 ± 0.00012 | 0.000733 ± 0.00016 | 0.00291 ± 0.0011 | 0.00449 ± 0.001 | 4570 ± 1200 | 6.93e-05 ± 3.2e-05
G32U A52G | 8.92e-05 ± 4.7e-06 | – | – | 3.86e-05 ± 7.8e-06 | 6.6e-05 ± 5.2e-06 | 3490 ± 570 | –
G37C A53U U69G | 3.72e-05 ± 1.7e-05 | – | 3.81e-05 ± 1.9e-05 | 6.4e-05 ± 2.4e-05 | – | – | –
A36G A64G | 2.02e-05 ± 1.1e-06 | < 1e-05 | – | – | – | – | < 1e-05
A14G C70U C71G | 0.000213 ± 6.9e-05 | – | 0.000185 ± 3.7e-05 | 0.00039 ± 8.8e-05 | 0.000168 ± 3.3e-05 | – | –
C67G U69A | 1.14e-05 ± 5.3e-06 | – | – | – | – | – | –
U49C A53U | < 1e-05 | – | – | – | – | – | –
G32C U56G | 5.69e-05 ± 1.6e-06 | – | 2.63e-05 ± 1.3e-05 | 4.76e-05 ± 1.1e-05 | 5.27e-05 ± 7.2e-06 | 663 ± 110 | < 1e-05

Variant | kcat (glucosamine-6-phosphate [1]) [s⁻¹] | self-cleavage kobs at 160 uM GlcN6P (glucosamine-6-phosphate [2]) [s⁻¹] | self-cleavage kobs at 640 uM GlcN6P (glucosamine-6-phosphate [3]) [s⁻¹] | self-cleavage kobs at 2500 uM GlcN6P (glucosamine-6-phosphate [4]) [s⁻¹] | self-cleavage kobs at 10000 uM GlcN6P (glucosamine-6-phosphate [5]) [s⁻¹] | KM (glucosamine-6-phosphate [6]) [µM] | self-cleavage kobs at 40 uM GlcN6P (glucosamine-6-phosphate [7]) [s⁻¹]
U45A U56G | 0.0614 ± 0.024 | 0.00188 ± 0.00049 | 0.0108 ± 0.0024 | 0.0272 ± 0.0087 | 0.0457 ± 0.011 | 3390 ± 1600 | 0.000857 ± 0.00011
C11A C67G | 5.42e-05 ± 1.1e-05 | 3.16e-05 ± 1.1e-05 | 8.75e-05 ± 1.5e-05 | 3.8e-05 ± 1e-05 | 5.65e-05 ± 8.7e-06 | – | –
C11U C71A | 0.000412 ± 2.6e-05 | 4.15e-05 ± 1.7e-05 | 0.000106 ± 1.5e-05 | 0.00024 ± 4.4e-05 | 0.000354 ± 6.1e-05 | 1790 ± 200 | –
A14G U45C | 0.00289 ± 0.0011 | 0.000403 ± 9.2e-05 | 0.00149 ± 0.00031 | 0.00215 ± 0.00057 | – | – | 0.000196 ± 4.6e-05
A6C G66A | 8.29e-05 ± 2.9e-06 | – | – | 3.57e-05 ± 1.3e-05 | 6.22e-05 ± 1.2e-05 | 3320 ± 320 | –
G32U U65G | 0.00128 ± 0.00061 | – | – | 2.49e-05 ± 1.1e-05 | 9.34e-05 ± 1.3e-05 | – | < 1e-05
G29U A53G C67G | 0.000147 ± 2.6e-05 | 6.91e-05 ± 1.9e-05 | 0.000108 ± 1.9e-05 | 0.000139 ± 3.6e-05 | 0.000205 ± 4.9e-05 | – | 5.1e-05 ± 1.8e-05
A14G C61A | 1.1e-05 ± 4.8e-06 | – | – | – | – | – | –
U30C U47A | 0.000176 ± 9.3e-06 | – | 5.72e-05 ± 8.2e-06 | 0.000106 ± 1.2e-05 | 0.00016 ± 1.6e-05 | 1400 ± 190 | –
G41U G66A | 0.00293 ± 0.00055 | 0.000253 ± 7.9e-05 | 0.000701 ± 0.00023 | 0.00141 ± 0.00028 | 0.00299 ± 0.00054 | 1820 ± 560 | 7.21e-05 ± 1.7e-05
A53U G60A C70A | 1.78e-05 ± 4.4e-06 | – | – | – | – | – | –
G41C U54C | 0.000229 ± 4e-05 | – | 0.000132 ± 2.8e-05 | 0.000162 ± 3.3e-05 | 0.000204 ± 2.4e-05 | – | –
G40A U65G | 0.00247 ± 0.00015 | – | 0.000421 ± 0.0001 | 0.00107 ± 0.00028 | 0.00192 ± 0.00028 | 2990 ± 340 | 3.72e-05 ± 1.4e-05
U46C A48U | 8.27e-05 ± 1.4e-05 | – | – | 6.44e-05 ± 1.3e-05 | 6.9e-05 ± 9e-06 | – | –
A12G G66A | 0.000586 ± 0.00018 | 2.09e-05 ± 9.7e-06 | 0.000105 ± 1.1e-05 | 0.000195 ± 2.3e-05 | 0.000496 ± 5.7e-05 | 3600 ± 1700 | –
U31A G41U | 0.000384 ± 3.8e-05 | 0.000103 ± 2e-05 | 0.000289 ± 6.2e-05 | 0.00034 ± 8.7e-05 | 0.000344 ± 6e-05 | 430 ± 89 | 2.67e-05 ± 1.2e-05
C34A A36C U45A | < 1e-05 | < 1e-05 | – | – | – | – | < 1e-05
